The numbers were not newly measured in patent US20120122716A1, “CELL LINE DERIVED FROM THE EPITHELIAL LINING OF THE HUMAN ENDOLYMPHATIC SAC IN THE INNER EAR” (priority 2010, published 2012), which cites them from elsewhere.

For this series, the system named is beta defensin 2. Conditions: HMEEC-1 cells; via Src-dependent Raf-MEK1/2-ERK signaling pathway.

B1: IL-1α: interleukin 1 alpha, cytokine (protein, UniProt P01583 113-271, looked up)
Interleukin-1 alpha: SAPFSFLSNVKYNFMRIIKYEFILNDALNQSIIRANDQYLTAAALHNLDEAVKFDMGAYKSSKDDAKITVILRISKTQLYVTAQDEDQPVLLKEMPEIPKTITGSETNLLFFWETHGTKNYFTSVAHPNLFIATKQDYWVCLAGGPPSITDFQILENQA
With B1, the “beta defensin 2 expression” value is listed as “up-regulate”.
